The test addresses Protein kinase C β2 (rat (endogenous in Wistar rat heart), UniProt P68403-2 1-673). As to the kind of experiment: cell-based or functional assay.

We go through 1 molecule from publication PMC3896488, “Complex Regulation of PKCβ2 and PDK-1/AKT by ROCK2 in Diabetic Heart” (PLoS ONE, 2014).

Chain of Protein kinase C β2 (P68403 other isoform, or with tags, fused parts or gaps): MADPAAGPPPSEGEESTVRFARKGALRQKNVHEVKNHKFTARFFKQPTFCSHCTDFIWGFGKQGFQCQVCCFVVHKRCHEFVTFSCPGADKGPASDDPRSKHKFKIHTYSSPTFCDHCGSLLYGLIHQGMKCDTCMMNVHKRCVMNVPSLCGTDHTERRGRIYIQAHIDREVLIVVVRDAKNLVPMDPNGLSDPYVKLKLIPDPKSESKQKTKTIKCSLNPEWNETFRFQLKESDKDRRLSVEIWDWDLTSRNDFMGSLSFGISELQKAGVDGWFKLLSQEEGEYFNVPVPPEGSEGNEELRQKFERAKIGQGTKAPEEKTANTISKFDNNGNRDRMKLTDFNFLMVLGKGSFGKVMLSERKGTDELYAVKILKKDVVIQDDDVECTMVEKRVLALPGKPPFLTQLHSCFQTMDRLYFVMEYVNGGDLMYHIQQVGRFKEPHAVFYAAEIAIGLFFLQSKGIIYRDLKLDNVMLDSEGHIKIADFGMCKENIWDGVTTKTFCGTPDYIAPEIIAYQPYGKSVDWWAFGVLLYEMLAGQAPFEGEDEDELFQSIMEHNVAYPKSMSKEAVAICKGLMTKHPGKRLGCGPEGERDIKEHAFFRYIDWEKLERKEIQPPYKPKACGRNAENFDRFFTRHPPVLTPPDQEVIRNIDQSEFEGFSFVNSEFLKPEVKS

B1: ROCK2 (enzyme, rat (endogenous in Wistar rat heart), UniProt Q62868 1-1388, looked up)
chain: MSRPPPTGKMPGAPEAAAGDGAGAGRQRKLEALIRDPRSPINVESLLDGLNSLVLDLDFPALRKNKNIDNFLNRYEKIVKKIRGLQMKAEDYDVVKVIGRGAFGEVQLVRHKASQKVYAMKLLSKFEMIKRSDSAFFWEERDIMAFANSPWVVQLFCAFQDDRYLYMVMEYMPGGDLVNLMSNYDVPEKWAKFYTAEVVLALDAIHSMGLIHRDVKPDNMLLDKHGHLKLADFGTCMKMDETGMVHCDTAVGTPDYISPEVLKSQGGDGYYGRECDWWSVGVFLFEMLVGDTPFYADSLVGTYSKIMDHKNSLCFPEDTEISKHAKNLICAFLTDREVRLGRNGVEEIKSASFFKNDQWNWDNIRETAAPVVPELSSDIDSSNFDDIEDDKGDVETFPIPKAFVGNQLPFIGFTYFRENLLLSDSPPCRENDAIQTRKSEESQEIQKKLYALEEHLSSEVQAKEELEQKCKSINTRLEKTAKELEEEITFRKNVESTLRQLEREKALLQHKNAEYQRKADHEADKKRNLENDVNSLKDQLEDLKKRNQSSQISTEKVNQLQKQLDEANALLRTESDTAARLRKTQAESSKQIQQLESNNRDLQDKNCLLETAKLKLEKEFINLQSALESERRDRTHGSEIINDLQGRISGLEEDLKTGKTLLAKVELEKRQLQEKLTDLEKEKSNMEIDMTYQLKVIQQSLEQEEAEHKTTKARLADKNKIYESIEEAKSEAMKEMEKKLLEERSLKQKVENLLLEAEKRCSILDCDLKQSQQKLNELLKQKDVLNEDVRNLTLKIEQETQKRCLMQNDLKMQTQQVNTLKMSEKQIKQENNHLMEMKMNLEKQNAELRKERQDADGQMKELQDQLEAEQYFSTLYKTQVRELKEENEEKTKLCKELQQKKQDLQDERDSLAAQLEITLTKADSEQLARSIAEEQYSDLEKEKIMKELEIKEMMARHKQELTEKDATIASLEETNRTLTSDVANLANEKEELNNKLKDTQEQLSKLKDEEISAAAIKAQFEKQLLTERTLKTQAVNKLAEIMNRKEPVKRGSDTDVRRKEKENRKLHMELKSEREKLTQQMIKYQKELNEMQAQIAEESQIRIELQMTLDSKDSDIEQLRSQLQALHIGMDSSSIGSGPGDAEPDDGFPESRLEGWLSLPVRNNTKKFGWVKKYVIVSSKKILFYDSEQDKEQSNPYMVLDIDKLFHVRPVTQTDVYRADAKEIPRIFQILYANEGESKKEPEFPVEPVGEKSNYICHKGHEFIPTLYHFPTNCEACMKPLWHMFKPPPALECSRCHIKCHKDHMDKKEEIIAPCKVYYDISSAKNLLLLANSTEEQQKWVSRLVKKIPKKPPAPDPFARSSPRTSMKIQQNQSIRRPSRQLAPNKPS
On to B1, for which the “in vitro phosphorylation of dephosphorylated PKCβ2 at T641 with against without active ROCK2 (molar ratio 1:30, 400 µM ATP, 37°C, 45 min), Western blot” value was approximately 2 fold.
